For 94 variants, protein stability index results are on record in the supplement of paper PMC10567573.

Sequences and labels used below:
B1: SOAT1 (parent)
chain: GVLILFLTFFAFLHCWLNAFAEML
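Note: lentivirally expressed fusions sorted by FACS into six bins by GFP to DsRed ratio, PSI derived from sequencing read proportions per bin multiplied by bin number.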

In this series the parent is B1. The series is described as follows: protein stability index of a GFP-peptide fusion (GPS, HEK-293T) (PSI 1-6); higher = more stable. To be noted: c terminus: a fixed tail appended.
On to GVLALFLTFFAFLHCWLNAFAEML [I4A], for which the protein stability index came out at 2.03. As to GVLYLFLTFFAFLHCWLNAFAEML [I4Y], the protein stability index is 3.33.

With GVLWLFLTFFAFLHCWLNAFAEML [I4W], the protein stability index was found to be 2.43. For GVLRLFLTFFAFLHCWLNAFAEML [I4R] the value was 3.74. The same measure for GVLHLFLTFFAFLHCWLNAFAEML [I4H]: 1.85; for GVLELFLTFFAFLHCWLNAFAEML [I4E]: 2.23. Take GVLLLFLTFFAFLHCWLNAFAEML [I4L]: the protein stability index worked out at 2.76. The same measure for GVLFLFLTFFAFLHCWLNAFAEML [I4F]: 1.75. For GVLDLFLTFFAFLHCWLNAFAEML [I4D] the value was 1.73. Consider GVLILFLTFFAFRHCWLNAFAEML [L13R], for which the protein stability index is 2.96. The same measure for GVLILFLTFFAFAHCWLNAFAEML [L13A]: 4.05; for GVLILFLTFFAFKHCWLNAFAEML [L13K]: 3.57. The same measure for GVLILFLTFFAFVHCWLNAFAEML [L13V]: 2.57; for GVLILFLTFFAFYHCWLNAFAEML [L13Y]: 2.48. For GVLILFLTFFAFFHCWLNAFAEML [L13F] the value was 2.74; for GVLILFLTFFAFDHCWLNAFAEML [L13D], 3.39.

On to GVLILFLTFFAFHHCWLNAFAEML [L13H], for which the protein stability index was 2.45.

On to GVLILFLTFFAFNHCWLNAFAEML [L13N], for which the protein stability index amounted to 3.07. The same measure for GVLILFLTFFAFCHCWLNAFAEML [L13C]: 2.83; for GVLILFLTFFAFWHCWLNAFAEML [L13W]: 3.93; for GVLILFLTFFAFGHCWLNAFAEML [L13G]: 2.86.

Take GVLILFLTFFAFSHCWLNAFAEML [L13S]: the protein stability index amounted to 3.65. For GVLILFLTFFAFIHCWLNAFAEML [L13I] the value was 2.17; for GVLILFLTFFAFPHCWLNAFAEML [L13P], 2.6; for GVLILFLTFFAFTHCWLNAFAEML [L13T], 3.62. The same measure for GVLILFLTFFAFEHCWLNAFAEML [L13E]: 3.16. The same measure for GVLILFLTFFAFQHCWLNAFAEML [L13Q]: 4.15. For the variant GVLILFLQFFAFLHCWLNAFAEML [T8Q], the protein stability index stood at 1.69. For GVLILFLYFFAFLHCWLNAFAEML [T8Y] the value was 3.57; for GVLILFLFFFAFLHCWLNAFAEML [T8F], 3.81; for GVLILFLVFFAFLHCWLNAFAEML [T8V], 2.33. Turning to GVLILFLIFFAFLHCWLNAFAEML [T8I], the protein stability index worked out at 2.42.

GVLILFLNFFAFLHCWLNAFAEML [T8N]: the protein stability index was found to be 2.38.

As for GVLILFLLFFAFLHCWLNAFAEML [T8L], the protein stability index was found to be 2.04. The same measure for GVLILFLGFFAFLHCWLNAFAEML [T8G]: 2.61. For GVLILFLAFFAFLHCWLNAFAEML [T8A] the value was 3.88; for GVLILFLWFFAFLHCWLNAFAEML [T8W], 1.47; for GVLILFLDFFAFLHCWLNAFAEML [T8D], 2.71. For GVLILFLMFFAFLHCWLNAFAEML [T8M] the value was 2.6; for GVLILFLPFFAFLHCWLNAFAEML [T8P], 3.34; for GVLILFLHFFAFLHCWLNAFAEML [T8H], 3.09. For the variant GVLILFLSFFAFLHCWLNAFAEML [T8S], the protein stability index was found to be 3.41. The same measure for GVLILFLEFFAFLHCWLNAFAEML [T8E]: 2.8; for GVLILFLCFFAFLHCWLNAFAEML [T8C]: 1.01. For GVLIDFLTFFAFLHCWLNAFAEML [L5D] the value was 4.32; for GVLIGFLTFFAFLHCWLNAFAEML [L5G], 2.13. The same measure for GVLIHFLTFFAFLHCWLNAFAEML [L5H]: 3.32; for GVLIWFLTFFAFLHCWLNAFAEML [L5W]: 2.17; for GVLINFLTFFAFLHCWLNAFAEML [L5N]: 3.7. For GVLIAFLTFFAFLHCWLNAFAEML [L5A], the protein stability index was 2.42. On to GVLIKFLTFFAFLHCWLNAFAEML [L5K], for which the protein stability index was 2.87. For the variant GVLICFLTFFAFLHCWLNAFAEML [L5C], the protein stability index was 2.84. For GVLIMFLTFFAFLHCWLNAFAEML [L5M], the protein stability index was determined as 1.72. For GVLIEFLTFFAFLHCWLNAFAEML [L5E] the value was 3.38; for GVLIYFLTFFAFLHCWLNAFAEML [L5Y], 3.59. With GVLIQFLTFFAFLHCWLNAFAEML [L5Q], the protein stability index amounted to 3.75. The same measure for GVLIVFLTFFAFLHCWLNAFAEML [L5V]: 1.91; for GVLITFLTFFAFLHCWLNAFAEML [L5T]: 2.34; for GVLIIFLTFFAFLHCWLNAFAEML [L5I]: 2.23. The same measure for GVLIRFLTFFAFLHCWLNAFAEML [L5R]: 2.57; for GVLILFLTFQAFLHCWLNAFAEML [F10Q]: 4.33. Turning to GVLILFLTFAAFLHCWLNAFAEML [F10A], the protein stability index was determined as 3.62. The same measure for GVLILFLTFKAFLHCWLNAFAEML [F10K]: 2.35. For GVLILFLTFCAFLHCWLNAFAEML [F10C], the protein stability index was 2.63.

With GVLILFLTFHAFLHCWLNAFAEML [F10H], the protein stability index was 2.17. The same measure for GVLILFLTFIAFLHCWLNAFAEML [F10I]: 2.54; for GVLILFLTFMAFLHCWLNAFAEML [F10M]: 1.67. Take GVLILFLTFLAFLHCWLNAFAEML [F10L]: the protein stability index is 2.24. For GVLILFLTFEAFLHCWLNAFAEML [F10E] the value was 2.27; for GVLILFLTFYAFLHCWLNAFAEML [F10Y], 3.58; for GVLILFLTFVAFLHCWLNAFAEML [F10V], 2.75. The same measure for GVLILFLTFTAFLHCWLNAFAEML [F10T]: 3.52; for GVLILFLTFSAFLHCWLNAFAEML [F10S]: 2.2. As to GVLILFLTFRAFLHCWLNAFAEML [F10R], the protein stability index is 3.84. GVLILFLTFNAFLHCWLNAFAEML [F10N]: the protein stability index was found to be 3.82. As for GVWILFLTFFAFLHCWLNAFAEML [L3W], the protein stability index came to 3.13.

On to GVYILFLTFFAFLHCWLNAFAEML [L3Y], for which the protein stability index amounted to 2.94. As to GVLILFLTFFWFLHCWLNAFAEML [A11W], the protein stability index is 1.64. The same measure for GVLILFLTFFDFLHCWLNAFAEML [A11D]: 2.82.

As to GVLILFLTFFPFLHCWLNAFAEML [A11P], the protein stability index was 3.29. The same measure for GVLILFLTFFGFLHCWLNAFAEML [A11G]: 1.15; for GVLILFLTFFRFLHCWLNAFAEML [A11R]: 3.9.

With GVLILFLTFFSFLHCWLNAFAEML [A11S], the protein stability index amounted to 2.69. The same measure for GVLILFLTFFTFLHCWLNAFAEML [A11T]: 3.07. For GVLILFLTFFCFLHCWLNAFAEML [A11C] the value was 1.84; for GVLILFLTFFMFLHCWLNAFAEML [A11M], 3.5.

Turning to GVLILFLTFFLFLHCWLNAFAEML [A11L], the protein stability index was 1.75. The same measure for GVLILFLTFFVFLHCWLNAFAEML [A11V]: 1.88; for GVLILFLTFFFFLHCWLNAFAEML [A11F]: 2.48; for GVLILFLTFFKFLHCWLNAFAEML [A11K]: 2.37.

In the case of GVLILFLTFFYFLHCWLNAFAEML [A11Y], the protein stability index is 2.09. Consider GVLILFLTFFHFLHCWLNAFAEML [A11H], for which the protein stability index worked out at 2.31. The same measure for GVLILFLTFFIFLHCWLNAFAEML [A11I]: 3.38. For GVLILFLTFFQFLHCWLNAFAEML [A11Q] the value was 2.55.
